Where a chain is given by its changes, count along the chain named. Numbers in names are those of the source.
B1: untagged SPD-5 aa 135-473, PLK1-phosphorylated, P91349 S170A; T178A; T198A (protein)
chain: MQSRIETSEDNFARQMKEFEAQKHAMEERIKELELAATDANNTAVGSFRGTLDDILKKNDPDFALTSGYEERKINDLEAKLLSEIDKVAELEDHIQQLRQELDDQSARLADSENVRAQLEAATGQGILGAAGNAMVPNSTFMIGNGRESQTRDQLNYIDDLETKLADAKKENDKARQALVEYMNKCSKLEHEIRTMVKNSTFDSSSMLLGGQTSDELKIQIGKVNGELNVLRAENRELRIRCDQLTGGDGNLSISLGQSRLMAGIATNDVDSIGQGNETGGTSMRILPRESQLDDLEESKLPLMDTSSAVRNQQQFASMWEDFESVKDSLQNNHNDTLE
B2: MBP-6His-HA (M6HH)-tagged SPD-5 aa 1-113, PLK1-phosphorylated, P91349 S5A; S11A (protein)
chain: MEDNAVLNEDANLEHVEGQPRRSMSQPVLNVEGDKRTSSTSATQQQVLSGAFSSADVRSIPIIQTWEENKALKTKITILRGELQMYQRRYSEAKEASQKRVKEVMDDYVDLKL
B3: untagged SPD-5 aa 135-473, not phosphorylated, P91349 T274A; T335A; S339A; S340A (protein)
chain: B1 chain with A36S, A44T, A64T, T140A, T201A, S205A, S206A
B4: MBP-6His-HA (M6HH)-tagged SPD-5 aa 1-113, not phosphorylated, P91349 S5A; S11A (protein)
chain: B2 chain
B5: untagged SPD-5 aa 135-473, not phosphorylated, P91349 S170A; T178A; T198A; T274A; T335A; S339A; S340A (protein)
chain: B1 chain with T140A, T201A, S205A, S206A
B6: untagged SPD-5 aa 135-473, PLK1-phosphorylated, P91349 S170A; T178A; T198A; T274A; T335A; S339A; S340A (protein)
chain: B1 chain with T140A, T201A, S205A, S206A
B7: untagged SPD-5 aa 135-473, PLK1-phosphorylated, P91349 T274A; T335A; S339A; S340A (protein)
chain: B1 chain with A36S, A44T, A64T, T140A, T201A, S205A, S206A
B8: untagged SPD-5 aa 135-473, not phosphorylated, P91349 S170A; T178A; T198A (protein)
chain: B1 chain

Columns and labels:
[1] = target: T1, C. elegans γ-tubulin complex (γTuC): γ-tubulin TBG-1, GCP2 GIP-2-5Myc, GCP3 GIP-1 and MZT-1, P34475;G5EF84; test: pull-down on γTuC-coated beads, anti-SPD-5 immunoblot; settings: chain shown with the change, binding 2 hours at 4°C, scale: band intensity relative to SPD-5 135-473 without PLK1
[2] = target: T1, C. elegans γ-tubulin complex (γTuC): …; test: pull-down on γTuC-coated beads, anti-MBP immunoblot; settings: chain shown with the change, binding 2 hours at 4°C, scale: band intensity relative to SPD-5 1-113 without PLK1
[3] = +PLK1 preincubation (2.0 μM fragment, 500 nM PLK1(T194D), 0.2 mM ATP, 1 hour at 23°C), 75 nM SPD-5 …

T1 sequence (chain, as listed by the source, chain 1 of 4): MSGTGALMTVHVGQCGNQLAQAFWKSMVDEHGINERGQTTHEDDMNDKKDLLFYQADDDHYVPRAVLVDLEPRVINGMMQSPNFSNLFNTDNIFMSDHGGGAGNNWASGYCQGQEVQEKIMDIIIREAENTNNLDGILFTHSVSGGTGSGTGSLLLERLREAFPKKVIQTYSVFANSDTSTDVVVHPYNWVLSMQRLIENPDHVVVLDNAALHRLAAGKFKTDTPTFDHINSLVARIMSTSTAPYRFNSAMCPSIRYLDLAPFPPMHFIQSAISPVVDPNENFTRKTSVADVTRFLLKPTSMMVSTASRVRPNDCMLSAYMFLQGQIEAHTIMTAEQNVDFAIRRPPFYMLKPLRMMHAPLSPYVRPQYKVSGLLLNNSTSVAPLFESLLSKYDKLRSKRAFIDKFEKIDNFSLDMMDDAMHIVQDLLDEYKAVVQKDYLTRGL
T1 sequence (chain, as listed by the source, chain 2 of 4): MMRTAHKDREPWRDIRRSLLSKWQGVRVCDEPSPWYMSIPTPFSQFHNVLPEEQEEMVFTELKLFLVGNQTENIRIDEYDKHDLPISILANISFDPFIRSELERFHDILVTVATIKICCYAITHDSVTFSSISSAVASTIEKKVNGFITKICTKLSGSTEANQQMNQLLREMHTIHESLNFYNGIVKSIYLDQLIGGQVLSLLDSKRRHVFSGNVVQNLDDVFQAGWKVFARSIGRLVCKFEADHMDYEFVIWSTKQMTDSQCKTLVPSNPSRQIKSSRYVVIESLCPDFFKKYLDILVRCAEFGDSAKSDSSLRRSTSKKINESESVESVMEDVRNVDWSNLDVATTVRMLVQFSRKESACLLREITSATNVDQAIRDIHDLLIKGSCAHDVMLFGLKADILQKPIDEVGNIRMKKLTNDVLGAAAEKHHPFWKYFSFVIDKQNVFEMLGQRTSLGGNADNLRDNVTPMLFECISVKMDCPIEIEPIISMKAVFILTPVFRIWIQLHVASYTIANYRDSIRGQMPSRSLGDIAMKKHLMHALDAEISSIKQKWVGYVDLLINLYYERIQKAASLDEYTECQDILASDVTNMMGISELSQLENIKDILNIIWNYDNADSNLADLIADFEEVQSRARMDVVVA
T1 sequence (chain, as listed by the source, chain 3 of 4): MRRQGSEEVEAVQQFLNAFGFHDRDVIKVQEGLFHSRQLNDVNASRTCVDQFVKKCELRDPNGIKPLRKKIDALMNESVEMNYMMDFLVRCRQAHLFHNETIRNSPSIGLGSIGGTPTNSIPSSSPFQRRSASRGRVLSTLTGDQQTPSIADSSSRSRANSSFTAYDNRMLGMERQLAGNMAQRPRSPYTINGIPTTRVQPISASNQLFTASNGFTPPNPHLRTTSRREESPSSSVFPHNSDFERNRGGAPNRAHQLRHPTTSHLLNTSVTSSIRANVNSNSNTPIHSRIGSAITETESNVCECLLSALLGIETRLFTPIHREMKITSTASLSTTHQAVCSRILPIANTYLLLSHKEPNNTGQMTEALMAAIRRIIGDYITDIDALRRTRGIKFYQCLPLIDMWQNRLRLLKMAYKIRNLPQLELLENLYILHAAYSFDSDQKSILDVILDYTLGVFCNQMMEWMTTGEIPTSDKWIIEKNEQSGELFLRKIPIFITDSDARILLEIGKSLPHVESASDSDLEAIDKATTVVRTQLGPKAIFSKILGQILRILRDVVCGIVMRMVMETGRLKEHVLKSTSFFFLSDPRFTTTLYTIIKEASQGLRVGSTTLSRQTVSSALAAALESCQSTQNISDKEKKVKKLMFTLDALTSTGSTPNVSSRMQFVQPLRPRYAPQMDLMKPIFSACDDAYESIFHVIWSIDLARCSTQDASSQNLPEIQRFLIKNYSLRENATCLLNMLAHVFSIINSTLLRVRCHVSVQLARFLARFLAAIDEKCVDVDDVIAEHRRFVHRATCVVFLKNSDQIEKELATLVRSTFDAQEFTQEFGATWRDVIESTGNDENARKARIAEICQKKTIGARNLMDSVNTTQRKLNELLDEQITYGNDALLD
T1 sequence (chain, as listed by the source, chain 4 of 4): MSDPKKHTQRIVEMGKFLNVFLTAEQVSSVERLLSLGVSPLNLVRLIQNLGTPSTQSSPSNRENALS

Binder	response [1, 3]	response ([1]; no PLK1, 75 nM SPD-5 fragment)	other results
B1	0.1		
B2			response [2, 3]: 4.7
B3		0.1	
B4			response ([2]; no PLK1, 75 nM SPD-5 fragment): 0.6
B5		0.1	
B6	0		
B7	2.8		
B8		0.7	
